Assay [1] has as its target ARNT PAS-B (Homo sapiens) (UniProt P27540). Kind of assay: NMR. Conditions: cited from earlier work.
The target in assay [2] is Drosophila PERIOD fragment lacking helix αF, dPERΔαF[232–538] (Drosophila melanogaster) (UniProt P07663). Kind of assay: AUC; sedimentation equilibrium, interference optics, 10 °C, 25 mM HEPES pH 7.7, 100 mM NaCl, 2 mM DTE; four starting concentrations from stocks of 0.8–2 mg/ml; dimer to monomers, K D = 1/K A.

A word on the Kd: it is the concentration at which binding is half-saturated.

Sequence of HIF-2α PAS-B (Q99814 239-350): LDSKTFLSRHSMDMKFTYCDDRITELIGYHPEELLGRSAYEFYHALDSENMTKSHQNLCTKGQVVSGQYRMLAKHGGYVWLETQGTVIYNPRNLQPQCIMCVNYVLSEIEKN
Sequence of ARNT PAS-B (P27540 356-470): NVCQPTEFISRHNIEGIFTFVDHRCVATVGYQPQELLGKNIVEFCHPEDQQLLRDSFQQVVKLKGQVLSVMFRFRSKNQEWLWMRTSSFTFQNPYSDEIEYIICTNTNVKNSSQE

For HIF-2α PAS-B (from UniProt Q99814), the Kd in assay [1] is 30 µM. As to ARNT PAS-B (from UniProt P27540), the Kd in assay [1] was 500 µM.

“Drosophila PERIOD fragment lacking helix αF, dPERΔαF[232–538] (from UniProt P07663 232-538) (domain or fragment)” returned a Kd in assay [2] of 256 µM.

The values are drawn from paper PMC2671562.
